One data set deals with T1, BsMiniIII Δ10 (Bacillus subtilis ATCC 23857, UniProt O31418 1-143, del86-95).
T1 sequence: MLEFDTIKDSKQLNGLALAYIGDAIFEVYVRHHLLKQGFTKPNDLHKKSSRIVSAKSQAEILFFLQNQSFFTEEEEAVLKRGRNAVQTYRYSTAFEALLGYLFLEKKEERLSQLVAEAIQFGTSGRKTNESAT
Put plainly: filter binding; 1 mM Ca2+; affinity not affected vs wild type; Filter binding: 10 mM Tris-HCl pH 7.5, 5 mM NaCl, 1 mM CaCl2, room temperature, 1 h; 0.01 µM labeled 30 bp dsRNA, 0.1-4 µM enzyme. The settings on record: protein: recombinant; tags: C-terminal His6; chain copies: 2; label: 32P end label (33P in Methods for the substrate); blunt.

A further data set deals with T2, BsMiniIII Δ5 (Bacillus subtilis ATCC 23857, UniProt O31418 1-143, del91-95).
T2 sequence: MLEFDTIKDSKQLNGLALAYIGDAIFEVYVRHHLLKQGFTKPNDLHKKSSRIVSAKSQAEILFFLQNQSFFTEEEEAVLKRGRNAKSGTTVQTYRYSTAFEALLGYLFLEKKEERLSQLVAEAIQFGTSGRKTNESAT
Described as above. The settings on record: protein: recombinant; tags: C-terminal His6; chain copies: 2; label: 32P end label (33P in Methods for the substrate); blunt.

B1: 30 bp dsRNA (30f/30r) (dsRNA)
RNA 1: CGAUACCGUCGACCUCGAGGGGGGGCCCGG
RNA 2: CCGGGCCCCCCCUCGAGGUCGACGGUAUCG
Take B1: the binding result with BsMiniIII Δ10 and with BsMiniIII Δ5 was “binds” in each case.

The values are drawn from PMC4357697, “Sequence-specific cleavage of dsRNA by Mini-III RNase”.
